Data from patent US20240043528A1, “NANOBODY-OGA FUSIONS AND USES THEREOF” (President and Fellows of Harvard College, priority 2020, published 2024).
“Also recorded” adds a separate entry of the source.

T1: OGT with C-terminal His tag (human, UniProt O15294 1-1046, limits assumed)
T1 construct: also called OGT-His; pCMV3-OGT-His; not shown: C-terminal His tag
T1 sequence (looked up): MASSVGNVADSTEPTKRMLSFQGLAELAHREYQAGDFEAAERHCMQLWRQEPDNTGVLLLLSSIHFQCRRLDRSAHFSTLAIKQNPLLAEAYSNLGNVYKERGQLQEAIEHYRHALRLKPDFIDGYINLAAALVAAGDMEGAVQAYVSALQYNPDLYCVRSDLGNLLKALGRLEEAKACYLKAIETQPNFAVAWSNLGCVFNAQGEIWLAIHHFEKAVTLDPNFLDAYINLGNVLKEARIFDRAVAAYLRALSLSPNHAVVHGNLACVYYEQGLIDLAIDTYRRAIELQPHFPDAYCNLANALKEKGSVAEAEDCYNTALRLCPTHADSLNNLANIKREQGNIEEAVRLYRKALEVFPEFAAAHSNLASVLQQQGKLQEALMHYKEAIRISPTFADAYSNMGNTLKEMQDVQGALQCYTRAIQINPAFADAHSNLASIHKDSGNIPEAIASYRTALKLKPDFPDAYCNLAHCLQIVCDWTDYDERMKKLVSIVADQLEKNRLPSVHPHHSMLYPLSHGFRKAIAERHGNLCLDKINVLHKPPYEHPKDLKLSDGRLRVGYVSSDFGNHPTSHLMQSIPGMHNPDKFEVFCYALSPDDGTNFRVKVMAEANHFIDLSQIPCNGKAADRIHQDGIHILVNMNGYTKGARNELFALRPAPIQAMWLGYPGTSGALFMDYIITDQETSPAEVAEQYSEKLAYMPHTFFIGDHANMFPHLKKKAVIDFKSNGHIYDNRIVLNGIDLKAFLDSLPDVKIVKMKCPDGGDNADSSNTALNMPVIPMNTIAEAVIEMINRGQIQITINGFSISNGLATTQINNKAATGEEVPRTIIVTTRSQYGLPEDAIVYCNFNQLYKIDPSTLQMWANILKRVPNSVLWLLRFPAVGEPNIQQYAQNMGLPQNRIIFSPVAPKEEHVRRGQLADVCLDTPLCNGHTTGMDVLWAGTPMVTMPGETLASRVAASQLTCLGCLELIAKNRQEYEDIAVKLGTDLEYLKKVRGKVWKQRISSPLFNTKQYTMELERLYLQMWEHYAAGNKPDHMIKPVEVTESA

B1: fl-OGA: Full length OGA with a myc tag (SEQ ID NO: 1) (protein)
chain: MASMQKLISEEDLLMAMEARIRSTVQKESQATLEERESELSSNPAASAGASLEPPAAPAPGEDNPAGAGGAAVAGAAGGARRFLCGVVEGFYGRPWVMEQRKELFRRLQKWELNTYLYAPKDDYKHRMFWREMYSVEEAEQLMTLISAAREYEIEFIYAISPGLDITFSNPKEVSTLKRKLDQVSQFGCRSFALLFDDIDHNMCAADKEVFSSFAHAQVSITNEIYQYLGEPETFLFCPTEYCGTFCYPNVSQSPYLRTVGEKLLPGIEVLWTGPKVVSKEIPVESIEEVSKIIKRAPVIWDNIHANDYDQKRLFLGPYKGRSTELIPRLKGVLTNPNCEFEANYVAIHTLATWYKSNMNGVRKDVVMTDSEDSTVSIQIKLENEGSDEDIETDVLYSPQMALKLALTEWLQEFGVPHQYSSRQVAHSGAKASVVDGTPLVAAPSLNATTVVTTVYQEPIMSQGAALSGEPTTLTKEEEKKQPDEEPMDMVVEKQEETDHKNDNQILSEIVEAKMAEELKPMDTDKESIAESKSPEMSMQEDCISDIAPMQTDEQTNKEQFVPGPNEKPLYTAEPVTLEDLQLLADLFYLPYEHGPKGAQMLREFQWLRANSSVVSVNCKGKDSEKIEEWRSRAAKFEEMCGLVMGMFTRLSNCANRTILYDMYSYVWDIKSIMSMVKSFVQWLGCRSHSSAQFLIGDQEPWAFRGGLAGEFQRLLPIDGANDLFFQPPPLTPTSKVYTIRPYFPKDEASVYKICREMYDDGVGLPFQSQPDLIGDKLVGGLLSLSLDYCFVLEDEDGICGYALGTVDVTPFIKKCKISWIPFMQEKYTKPNGDKELSEAEKIMLSFHEEQEVLPETFLANFPSLIKMDIHKKVTDPSVAKSMMACLLSSLKANGSRGAFCEVRPDDKRILEFYSKLGCFEIAKMEGFPKDVVILGRSL
modifications: myc tag
B2: split OGA (N2+C3) (enzyme)
chain 1: MEQKLISEEDLAIAMVQKESQATLEERESELSSNPAASAGASLEPPAAPAPGEDNPAGAGGAAVAGAAGGARRFLCGVVEGFYGRPWVMEQRKELFRRLQKWELNTYLYAPKDDYKHRMFWREMYSVEEAEQLMTLISAAREYEIEFIYAISPGLDITFSNPKEVSTLKRKLDQVSQFGCRSFALLFDDIDHNMCAADKEVFSSFAHAQVSITNEIYQYLGEPETFLFCPTEYCGTFCYPNVSQSPYLRTVGEKLLPGIEVLWTGPKVVSKEIPVESIEEVSKIIKRAPVIWDNIHANDYDQKRLFLGPYKGRSTELIPRLKGVLTNPNCEFEANYVAIHTLATWYKSNMNGVRKDVVMTDSEDSTVSIQIKLENEGSDEDIETDVLYSPQMALKLALTEWLQEFGVPHQYSSR
chain 2: MAYPYDVPDYAAIAEKPLYTAEPVTLEDLQLLADLFYLPYEHGPKGAQMLREFQWLRANSSVVSVNCKGKDSEKIEEWRSRAAKFEEMCGLVMGMFTRLSNCANRTILYDMYSYVWDIKSIMSMVKSFVQWLGCRSHSSAQFLIGDQEPWAFRGGLAGEFQRLLPIDGANDLFFQPP
notes: Two co-expressed fragments

Legend:
endogenous CREB = assay: Mass shift assay of O-GlcNAcylation on endogenous CREB (off-target marker); format: cell-based, human; conditions: untargeted off-target marker, HEK 293T cells
Procedure: (§1) For immunoblotting analysis, proteins were transferred to a nitrocellulose membrane using iBlot (Thermo Scientific). Membranes were blocked with Tris buffered saline containing 0.1% Tween-20 and 5% BSA and incubated with the primary antibodies (1:1000 dilution) and the secondary antibodies (1:10,000 dilution) sequentially. Immunoblot images were captured by Azure Imager C600. Analysis of immunoblots was conducted with Fiji ImageJ. All IR fluorescence western blot images are converted into grayscale images by Fiji ImageJ. The unsaturated exposure of immunoblot images was used for quantification with the appropriate loading controls as standards. Statistical analysis of the data was performed with Prism 8, using data from at least three independent experiments.
Purification of GalT1 (Y289L) enzyme and labeling of O-GlcNAcylated proteins with GalNAz were performed according to the procedure of Hsieh-Wilson and co-workers (Thompson, J. W., Griffin, M. E. & Hsieh-Wilson, L. C. Methods for the Detection, Study, and Dynamic Profiling of O-GlcNAc Glycosylation. Methods Enzymol. 2018, 598, 101-135). Briefly, cell samples in 6-well plates or 15-cm dishes were harvested and washed by PBS once. The lysis buffer (PBS with 2% SDS) was added into cell pellets and heated for 5 min at 95° C., followed by the sonication to sheer DNA. Protein concentrations were determined by BCA assay. […]

O-GlcNAcylated proteome = assay: Quantitative TMT mass spectrometry of enriched O-GlcNAcylated proteome; format: cell-based, human; conditions: co-expression of GFP-Nup62, versus inactive nGFP-splitOGA(D174N), n=2
Procedure: Purification of GalT1 (Y289L) enzyme and labeling of O-GlcNAcylated proteins with GalNAz were performed according to the procedure of Hsieh-Wilson and co-workers (Thompson, J. W., Griffin, M. E. & Hsieh-Wilson, L. C. Methods for the Detection, Study, and Dynamic Profiling of O-GlcNAc Glycosylation. Methods Enzymol. 2018, 598, 101-135). Briefly, cell samples in 6-well plates or 15-cm dishes were harvested and washed by PBS once. The lysis buffer (PBS with 2% SDS) was added into cell pellets and heated for 5 min at 95° C., followed by the sonication to sheer DNA. Protein concentrations were determined by BCA assay. Cell lysates were reduced and alkylated with 25 mM DTT at 95° C. for 5 min and 50 mM iodoacetamide at room temperature for 1 h respectively. Proteins were precipitated by the methanol/chloroform solution (aqueous phase:CH3OH:CHCl3=4:4:1) and resuspended in 1% SDS, 20 mM HEPES (pH 7.9) buffer with a concentration of 3.75 mg/mL. For 150 μg proteins, H2O (49 μL), 2.5×GalT labeling buffer (80 μL, final concentrations: 50 mM NaCl, 20 mM HEPES, 2% NP-40, pH 7.9), 100 mM MnCl2 (11 μL), 500 μM UDP-GalNAz (10 μL), 2 mg/mL GalT1 (Y289L) (10 μL) were added into cell lysates orderly. […]
For quantitative proteomics, after reaction with Biotin-Alkyne probe, proteins were precipitated and resuspended in 400 μL PBS containing 2% SDS. […]

global O-GlcNAcylation = assay: Global O-GlcNAcylation level in whole cell lysate, anti-O-GlcNAc (RL2) immunoblot; format: cell-based, human; conditions: HEK 293T whole cell lysate; OSMI-4b 25 μM for 30 h
Procedure: After 36-48 h of transfection, cells were harvested and washed with PBS once. Cells were lysed with M-PER lysis buffer containing 1× protease inhibitor cocktail and 10 μM Thiamet-G unless otherwise noted. Protein concentrations were determined by the BCA assay kit (G-Biosciences, 786) on a multi-mode microplate reader FilterMax F3 (Molecular Devices LLC, Sunnyvale, CA).
as §1

[1] = target: T1, OGT with C-terminal His tag; assay: co-immunoprecipitation with beads against the His tag of OGT from HEK 293T lysates, immunoblot
Procedure: Overexpressed OGT and its interacting proteins were co-immunoprecipitated by beads against His tag. Whole cell lysates and co-immunoprecipitated proteins were analyzed by immunoblotting assays using the indicated antibodies. Anti-myc and anti-HA blots detect expression of full-length OGA (fl-OGA), N-terminal fragment, and C-terminal fragment, respectively. The data are representative of two biological replicates.
For immunoprecipitation of proteins with His tag, cells were lysed in a buffer containing 50 mM Tris HCl pH 8.0, 150 mM NaCl, 1% Triton X-100, 5% glycerol, 1× protease inhibitor cocktail and 10 μM Thiamet-G on ice for 20 min. Cell lysates with equal amounts of protein were diluted with wash buffer (50 mM Tris HCl pH 8.0, 150 mM NaCl, 0.01% Tween-20) and incubated with pre-washed His-Tag Dynabeads (Invitrogen, 10103D) at room temperature for 20 min with mixing, following the manufacturer's instructions. After washed 4 times with wash buffer, the enriched proteins were eluted with elution buffer (300 mM Imidazole, 50 mM Tris HCl pH 8.0, 150 mM NaCl, 0.01% Tween-20) on a shaker for 10 min at room temperature.

Molecule | O-GlcNAcylation level on endogenous CREB (endogenous CREB) | change of enriched O-GlcNAcylated protein abundance (global proteome) (O-GlcNAcylated proteome) | global O-GlcNAcylation level (global O-GlcNAcylation) | binding result [1]
B1 | reduced O-GlcNAc on CREB and the whole proteome | globally decreased O-GlcNAcylated proteins | global reduction of O-GlcNAc; also recorded: reduced O-GlcNAc on CREB and the whole proteome | –
B2 | – | – | – | no binding
